Test results from article PMC2132865.

What was measured:
[1] = biological target: Fam (endogenous, MDCKII cells) (dog (endogenous in MDCKII)); experiment: co-IP
GST-AF-6 (1130–1612 aa) = experiment: pull-down

Substance | stoichiometry N [1] | Kd (GST-AF-6 (1130–1612 aa))
AF-6 (endogenous, MDCKII cells) (natural protein) | 0.1 AF-6 per Fam | –
MBP-Fam (1476–1918 aa) (domain or fragment) | – | 810 nM
